The source of these data is publication PMC6917434 (Journal of thrombosis and haemostasis : JTH, 2019).

Where two headings read alike, the source gives them in different places.

What all share (test): single-molecule atomic force microscopy
In series [1] the target is Factor XIII A subunit of plasma-purified inactive factor XIII (pFXIII-A2B2) (human) (UniProt P00488).
Series [2] has as its target T1, recombinant inactive factor XIII A subunit from ZymoGenetics (rFXIII-A2) (human), P00488.
T1 chain: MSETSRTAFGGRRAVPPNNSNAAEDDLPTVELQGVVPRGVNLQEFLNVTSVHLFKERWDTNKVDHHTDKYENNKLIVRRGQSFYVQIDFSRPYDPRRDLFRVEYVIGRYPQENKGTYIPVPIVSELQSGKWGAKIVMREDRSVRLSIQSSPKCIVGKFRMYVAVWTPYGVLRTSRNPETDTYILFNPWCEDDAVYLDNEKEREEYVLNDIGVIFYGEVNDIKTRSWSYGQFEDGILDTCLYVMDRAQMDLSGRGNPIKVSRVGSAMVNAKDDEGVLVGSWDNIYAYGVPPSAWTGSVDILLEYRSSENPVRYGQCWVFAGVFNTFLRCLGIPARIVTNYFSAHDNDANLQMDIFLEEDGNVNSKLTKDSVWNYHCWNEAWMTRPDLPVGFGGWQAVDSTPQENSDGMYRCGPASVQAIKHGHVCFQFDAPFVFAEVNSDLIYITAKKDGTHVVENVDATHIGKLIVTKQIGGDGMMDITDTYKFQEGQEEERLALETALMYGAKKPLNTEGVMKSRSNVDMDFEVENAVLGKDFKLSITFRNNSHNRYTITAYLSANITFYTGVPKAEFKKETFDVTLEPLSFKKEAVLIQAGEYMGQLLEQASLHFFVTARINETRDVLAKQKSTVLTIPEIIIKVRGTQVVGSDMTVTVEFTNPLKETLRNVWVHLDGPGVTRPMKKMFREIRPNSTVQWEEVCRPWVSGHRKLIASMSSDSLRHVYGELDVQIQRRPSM
The note with it: remark: other sources report otherwise.

In series [3] the target is T1, recombinant inactive factor XIII A …. The note with it: remark: other sources report otherwise.
Series [4] deals with the molecule itself.
Series [5] concerns the molecule itself. The source holds these as a separate data set.

For the molecule “Factor XIII A subunit of plasma-purified inactive factor XIII (pFXIII-A2B2) (from UniProt P00488 39-732) (enzyme)”, the stoichiometry N in series [1] worked out at 2.

B1: recombinant inactive factor XIII A subunit from ZymoGenetics (rFXIII-A2), P00488 1-732 (enzyme)
chain: T1 chain
As to B1, the stoichiometry N in series [2] and in series [3] was 2 each time.

B2: recombinant factor XIII B subunit from Zedira (rFXIII-B2) (natural protein, human, UniProt P05160 21-661, looked up)
chain: EEKPCGFPHVENGRIAQYYYTFKSFYFPMSIDKKLSFFCLAGYTTESGRQEEQTTCTTEGWSPEPRCFKKCTKPDLSNGYISDVKLLYKIQENMRYGCASGYKTTGGKDEEVVQCLSDGWSSQPTCRKEHETCLAPELYNGNYSTTQKTFKVKDKVQYECATGYYTAGGKKTEEVECLTYGWSLTPKCTKLKCSSLRLIENGYFHPVKQTYEEGDVVQFFCHENYYLSGSDLIQCYNFGWYPESPVCEGRRNRCPPPPLPINSKIQTHSTTYRHGEIVHIECELNFEIHGSAEIRCEDGKWTEPPKCIEGQEKVACEEPPFIENGAANLHSKIYYNGDKVTYACKSGYLLHGSNEITCNRGKWTLPPECVENNENCKHPPVVMNGAVADGILASYATGSSVEYRCNEYYLLRGSKISRCEQGKWSSPPVCLEPCTVNVDYMNRNNIEMKWKYEGKVLHGDLIDFVCKQGYDLSPLTPLSELSVQCNRGEVKYPLCTRKESKGMCTSPPLIKHGVIISSTVDTYENGSSVEYRCFDHHFLEGSREAYCLDGMWTTPPLCLEPCTLSFTEMEKNNLLLKWDFDNRPHILHGEYIEFICRGDTYPAELYITGSILRMQCDRGQLKYPRCIPRQSTLSYQEPLRT
modifications: glycosylation pattern different from the plasma-purified B subunit (sites not given)
Take B2: in series [4], the “stoichiometry N” value amounted to 2.

B3: Factor XIII B subunit of plasma-purified factor XIII (natural protein, human, UniProt P05160 21-661, looked up)
chain: B2 chain
modifications: glycoprotein (sites not given)
On to B3, for which the “stoichiometry N” value in series [5] turned out to be 2.

A word on the stoichiometry N: it is a count of units in the complex or per binding partner.
